Numbering of substitutions follows the chain as printed. A value given as a limit tells only on which side of the number the result lay.

For this assay, the target named is T1, human-CD40-Fc (human, UniProt P25942 21-193).
T1 construct: generated in house; also called hCD40-Fc; not shown: Fc part of the in-house hCD40-Fc is not described
Put plainly: SPR, dAb-Fc on immobilized hCD40-Fc, apparent KD (avidity). On the technique in general: SPR reads the build-up and loss of mass on a sensor chip optically.

T1 sequence (P25942 21-193): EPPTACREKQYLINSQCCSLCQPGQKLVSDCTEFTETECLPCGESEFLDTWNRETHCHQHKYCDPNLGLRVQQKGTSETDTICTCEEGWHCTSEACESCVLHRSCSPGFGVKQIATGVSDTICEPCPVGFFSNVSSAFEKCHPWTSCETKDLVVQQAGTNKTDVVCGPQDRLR

B1: 3h56-269-IgG1.1f (Fc fusion)
chain: EVQLLESGGGLVQPGGSLRLSCAASGFTFRDYEMWWVRQAPGKGLERVSAINPQGTRTYYADSVKGRFTISRDNSKNTLYLQMNSLRAEDTAVYYCAKLPFRFSDRGQGTLVTVSSASTEPKSCDKTHTCPPCPAPEAEGAPSVFLFPPKPKDTLMISRTPEVTCVVVDVSHEDPEVKFNWYVDGVEVHNAKTKPREEQYNSTYRVVSVLTVLHQDWLNGKEYKCKVSNKALPSSIEKTISKAKGQPREPQVYTLPPSREEMTKNQVSLTCLVKGFYPSDIAVEWESNGQPENNYKTTPPVLDSDGSFFLYSKLTVDKSRWQQGNVFSCSVMHEALHNHYTQKSLSLSPGK
For the molecule B1, the Kd was below 1 nM.

B2: 3h56-269-IgG1.3f (Fc fusion)
chain: B1 chain with S234A, S235P
Turning to B2, the Kd was below 1 nM.
